These results are taken from patent publication US20230406921A1 (MABWELL SHANGHAI BIOSCIENCE, published 2023).

For orientation: Kd means the concentration at which binding is half-saturated. For orientation: kon means a measure of how fast the partners come together. In general, koff refers to the first-order rate constant of dissociation.

For assay [1], the target named is T1, CD47 on the surface of human red blood cells (human, UniProt Q08722 19-323).
T1 construct: whole, on cells; Same protein as m3, on red blood cells; also called hRBC; RBC
The experiment in a line: FACS, RBC, 200 nM. For orientation: Flow cytometry measures light scatter and fluorescence of single cells or particles in a stream.
Experimental: (§1) The difference between the binding of the mutant to CD47 on the surface of tumor cells and CD47 on the surface of red blood cells was evaluated.

The target of assay [2] is T2, recombinant antigen of the extracellular region of CD47 (Sino Biological, Cat: 12283-H08H) (human, UniProt Q08722 19-139).
T2 construct: extracellular domain; also called recombinant CD47 extracellular region; CD47 recombinant protein
Briefly: Fortebio BLI, recombinant CD47. For orientation: In BLI a coated tip is dipped into the sample, and binding shifts an interference pattern.

Assay [3] has as its target T3, CD47 on the surface of tumor cells (human, UniProt Q08722 19-323).
T3 construct: whole, on cells; Same protein as m4; also called CD47 antigen on the surface of U937 and CCRF cells; SKOV-3
Briefly: FACS, tumor cells, 2 nM.
Experimental: as §1

Assay [4] has as its target T3, CD47 on the surface of tumor cells. The experiment in a line: FACS, tumor cells, 1 nM.
Experimental: as §1
The target in assay [5] is T2, recombinant antigen of the …. Briefly: Fortebio BLI, recombinant CD47 extracellular region.

B1: hz140-Hm13/hz182-Lm7 (antibody, V domains shown)
VH: EVQLVQSGAEVKKPGASVKVSCKASGYKFTNYVMSWVRQAPGQRLEWMGYINPYNDAIKYNEKFTGRVTITRDTSASTAYMELSSLRSEDTAVYYCAREGDFYANYGRLGFAYWGQGTLVTVSS
VL: DIQMTQSPSSLSASVGDRVTITCRASQDISNYLNWYQQKPGKAPKLLLYYTSRLHSGVPSRFSGSGSGTDYTLTISSLQPEDFATYFCQQGAGFPYTFGGGTKVEIKR
As for B1, the “FACS (MFI)” value in assay [1] came to 349 MFI. For the same molecule, in assay [2], the Kd turned out to be 16.6 nM and the association rate constant (kon) worked out at 201000 M⁻¹ s⁻¹. In assay [3], the “FACS (MFI)” value came to 17800 MFI.

B2: h140Hm13/h140Lm8 (antibody, V domains shown)
VH: EVQLVQSGAEVKKPGASVKVSCKASGYKFTNYVMSWVRQAPGQRLEWMGYINPYNDAIKYNEKFTGRVTITRDTSASTAYMELSSLRSEDTAVYYCAREGDFYANYGRLGFAYWGQGTLVTVSS
VL: DIQMTQSPSSLSASVGDRVTITCRASQDITNYLNWYQQKPGKAPKLLIYYTSRLHSGVPSRFSGSGSGTDYTFTISSLQPEDIATYFCQQGDTRPYTFGGGTKVEIK
notes: also called h140Lmut8; mut8
For B2, the “FACS (MFI)” value in assay [4] is 26400 MFI.

B3: h140Hm13/h140Lm17 (antibody, V domains shown)
VH: EVQLVQSGAEVKKPGASVKVSCKASGYKFTNYVMSWVRQAPGQRLEWMGYINPYNDAIKYNEKFTGRVTITRDTSASTAYMELSSLRSEDTAVYYCAREGDFYANYGRLGFAYWGQGTLVTVSS
VL: DIQMTQSPSSLSASVGDRVTITCRASQDITNYLNWYQQKPGKAPKLLIYYTSRLQSGVPSRFSGSGSGTDYTFTISSLQPEDIATYFCQQGDTEPYTFGGGTKVEIK
For the molecule B3, the “FACS (MFI)” value in assay [4] was found to be 11200 MFI.

B4: h140Hm13/h140Lm10 (antibody, V domains shown)
VH: EVQLVQSGAEVKKPGASVKVSCKASGYKFTNYVMSWVRQAPGQRLEWMGYINPYNDAIKYNEKFTGRVTITRDTSASTAYMELSSLRSEDTAVYYCAREGDFYANYGRLGFAYWGQGTLVTVSS
VL: DIQMTQSPSSLSASVGDRVTITCRASQDITNYLNWYQQKPGKAPKLLIYYTSRLHSGVPSRFSGSGSGTDYTFTISSLQPEDIATYFCQQGAGRPYTFGGGTKVEIK
notes: also called h140Lmut10; mut10
Regarding B4, the “FACS (MFI)” value in assay [4] was 40900 MFI.

B5: h140Hm13/h140Lm18 (antibody, V domains shown)
VH: EVQLVQSGAEVKKPGASVKVSCKASGYKFTNYVMSWVRQAPGQRLEWMGYINPYNDAIKYNEKFTGRVTITRDTSASTAYMELSSLRSEDTAVYYCAREGDFYANYGRLGFAYWGQGTLVTVSS
VL: DIQMTQSPSSLSASVGDRVTITCRASQDITNYLNWYQQKPGKAPKLLIYYTSRLQSGVPSRFSGSGSGTDYTFTISSLQPEDIATYFCQQGDTNPYTFGGGTKVEIK
B5: the “FACS (MFI)” value in assay [4] is 9920 MFI.

B6: hz140-Hm13/hz182-Lm1 (antibody, V domains shown)
VH: EVQLVQSGAEVKKPGASVKVSCKASGYKFTNYVMSWVRQAPGQRLEWMGYINPYNDAIKYNEKFTGRVTITRDTSASTAYMELSSLRSEDTAVYYCAREGDFYANYGRLGFAYWGQGTLVTVSS
VL: DIQMTQSPSSLSASVGDRVTITCRASQDISNYLNWYQQKPGKAPKLLIYYTSRLHSGVPSRFSGSGSGTDYTLTISSLQPEDFATYFCQQGAGRPYTFGGGTKVEIKR
notes: also called hz182-Lml
With B6, in assay [1], the “FACS (MFI)” value came to 2320 MFI. Besides, in assay [2], the Kd was 7.06 nM and the kon stood at 134000 M⁻¹ s⁻¹. For the same molecule, the “FACS (MFI)” value in assay [3] was determined as 15500 MFI.

B7: h140Hm13/h140Lm13 (antibody, V domains shown)
VH: EVQLVQSGAEVKKPGASVKVSCKASGYKFTNYVMSWVRQAPGQRLEWMGYINPYNDAIKYNEKFTGRVTITRDTSASTAYMELSSLRSEDTAVYYCAREGDFYANYGRLGFAYWGQGTLVTVSS
VL: DIQMTQSPSSLSASVGDRVTITCRASQDITNYLNWYQQKPGKAPKLLIYYTSRLHSGVPSRFSGSGSGTDYTFTISSLQPEDIATYFCQQGDTFPYTFGGGTKVEIK
Take B7: the “FACS (MFI)” value in assay [4] came to 10300 MFI.

B8: h140Hm13/h140Lm16 (antibody, V domains shown)
VH: EVQLVQSGAEVKKPGASVKVSCKASGYKFTNYVMSWVRQAPGQRLEWMGYINPYNDAIKYNEKFTGRVTITRDTSASTAYMELSSLRSEDTAVYYCAREGDFYANYGRLGFAYWGQGTLVTVSS
VL: DIQMTQSPSSLSASVGDRVTITCRASQDITNYLNWYQQKPGKAPKLLIYYTSRLQSGVPSRFSGSGSGTDYTFTISSLQPEDIATYFCQQGDTSPYTFGGGTKVEIK
On to B8, for which the “FACS (MFI)” value in assay [4] worked out at 12200 MFI.

B9: h140Hm13/h140Lm11 (antibody, V domains shown)
VH: EVQLVQSGAEVKKPGASVKVSCKASGYKFTNYVMSWVRQAPGQRLEWMGYINPYNDAIKYNEKFTGRVTITRDTSASTAYMELSSLRSEDTAVYYCAREGDFYANYGRLGFAYWGQGTLVTVSS
VL: DIQMTQSPSSLSASVGDRVTITCRASQDITNYLNWYQQKPGKAPKLLIYYTSRLSSGVPSRFSGSGSGTDYTFTISSLQPEDIATYFCQQGDTRPYTFGGGTKVEIK
For the molecule B9, in assay [4], the “FACS (MFI)” value stood at 19400 MFI.

B10: hz140-Hm13/hz182-Lm2 (antibody, V domains shown)
VH: EVQLVQSGAEVKKPGASVKVSCKASGYKFTNYVMSWVRQAPGQRLEWMGYINPYNDAIKYNEKFTGRVTITRDTSASTAYMELSSLRSEDTAVYYCAREGDFYANYGRLGFAYWGQGTLVTVSS
VL: DIQMTQSPSSLSASVGDRVTITCRASQDISNYLNWYQQKPGKAPKLLLYYTSRLHSGVPSRFSGSGSGTDYTFTISSLQPEDFATYFCQQGAGRPYTFGGGTKVEIKR
Consider B10, for which the “FACS (MFI)” value in assay [1] was 1670 MFI. Moreover, in assay [2], the Kd turned out to be 1410 nM and the on-rate constant (kon) was determined as 94700 M⁻¹ s⁻¹. For the same molecule, the “FACS (MFI)” value in assay [3] was 30400 MFI.

B11: h140Hm13/h140Lm14 (antibody, V domains shown)
VH: EVQLVQSGAEVKKPGASVKVSCKASGYKFTNYVMSWVRQAPGQRLEWMGYINPYNDAIKYNEKFTGRVTITRDTSASTAYMELSSLRSEDTAVYYCAREGDFYANYGRLGFAYWGQGTLVTVSS
VL: DIQMTQSPSSLSASVGDRVTITCRASQDITNYLNWYQQKPGKAPKLLIYYTSRLQSGVPSRFSGSGSGTDYTFTISSLQPEDIATYFCQQGDTYPYTFGGGTKVEIK
For B11, the “FACS (MFI)” value in assay [4] amounted to 7520 MFI.

B12: h140Hm13/h140Lm15 (antibody, V domains shown)
VH: EVQLVQSGAEVKKPGASVKVSCKASGYKFTNYVMSWVRQAPGQRLEWMGYINPYNDAIKYNEKFTGRVTITRDTSASTAYMELSSLRSEDTAVYYCAREGDFYANYGRLGFAYWGQGTLVTVSS
VL: DIQMTQSPSSLSASVGDRVTITCRASQDITNYLNWYQQKPGKAPKLLIYYTSRLQSGVPSRFSGSGSGTDYTFTISSLQPEDIATYFCQQGDTKPYTFGGGTKVEIK
B12: the “FACS (MFI)” value in assay [4] is 15700 MFI.

B13: 140Hm9/hz140L (Table 2) (antibody, V domains shown)
VH: QVQLVQSGAEVKKPGASVKVSCKASGYKFTNYVMHWVRQAPGQRLEWMGYINPYNEGIKYNEKFTGRVTITRDTSASTAYMELSSLRSEDTAVYYCAREGDFYANYGRLGFAYWGQGTLVTVSS
VL: DIQMTQSPSSLSASVGDRVTITCRASQDITNYLNWYQQKPGKAPKLLIYYTSRLHSGVPSRFSGSGSGTDYTFTISSLQPEDIATYFCQQGDTFPRTFGGGTKVEIK
notes: also called hz140-Hm/hz140L
With B13, in assay [5], the Kd was 3.92 nM, the koff stood at 0.000847 s⁻¹ and the kon turned out to be 216000 M⁻¹ s⁻¹.

B14: 140Hm8/hz140L (Table 2) (antibody, V domains shown)
VH: QVQLVQSGAEVKKPGASVKVSCKASGYKFTNYVMHWVRQAPGQRLEWMGYINPYNDAIKYNEKFTGRVTITRDTSASTAYMELSSLRSEDTAVYYCAREGDFYANYGRLGFAYWGQGTLVTVSS
VL: DIQMTQSPSSLSASVGDRVTITCRASQDITNYLNWYQQKPGKAPKLLIYYTSRLHSGVPSRFSGSGSGTDYTFTISSLQPEDIATYFCQQGDTFPRTFGGGTKVEIK
notes: also called hz140-Hm/hz140L
Turning to B14, in assay [5], the Kd is 3.87 nM, the koff was 0.00094 s⁻¹ and the kon amounted to 243000 M⁻¹ s⁻¹.

B15: hz140-Hm13/hz182-Lm3 (antibody, V domains shown)
VH: EVQLVQSGAEVKKPGASVKVSCKASGYKFTNYVMSWVRQAPGQRLEWMGYINPYNDAIKYNEKFTGRVTITRDTSASTAYMELSSLRSEDTAVYYCAREGDFYANYGRLGFAYWGQGTLVTVSS
VL: DIQMTQSPSSLSASVGDRVTITCRASQDISNYLNWYQQKPGKAPKLLLYYTSRLHSGVPSRFSGSGSGTDYTLTISSLQPEDIATYFCQQGAGRPYTFGGGTKVEIKR
As to B15, in assay [1], the “FACS (MFI)” value was determined as 874 MFI. For the same molecule, in assay [2], the Kd was 16.7 nM and the kon was 145000 M⁻¹ s⁻¹. Besides, the “FACS (MFI)” value in assay [3] was 30000 MFI.

B16: hz140-Hm13/hz182-Lm4 (antibody, V domains shown)
VH: EVQLVQSGAEVKKPGASVKVSCKASGYKFTNYVMSWVRQAPGQRLEWMGYINPYNDAIKYNEKFTGRVTITRDTSASTAYMELSSLRSEDTAVYYCAREGDFYANYGRLGFAYWGQGTLVTVSS
VL: DIQMTQSPSSLSASVGDRVTITCRASQDITNYLNWYQQKPGKAPKLLLYYTSRLHSGVPSRFSGSGSGTDYTLTISSLQPEDFATYFCQQGAGRPYTFGGGTKVEIKR
In the case of B16, in assay [1], the “FACS (MFI)” value worked out at 1840 MFI. Moreover, in assay [2], the Kd was 989 nM and the kon is 87900 M⁻¹ s⁻¹. The “FACS (MFI)” value in assay [3] came to 28500 MFI.

B17: h140Hm13/h140Lm12 (antibody, V domains shown)
VH: EVQLVQSGAEVKKPGASVKVSCKASGYKFTNYVMSWVRQAPGQRLEWMGYINPYNDAIKYNEKFTGRVTITRDTSASTAYMELSSLRSEDTAVYYCAREGDFYANYGRLGFAYWGQGTLVTVSS
VL: DIQMTQSPSSLSASVGDRVTITCRASQDITNYLNWYQQKPGKAPKLLIYYTSRLQSGVPSRFSGSGSGTDYTFTISSLQPEDIATYFCQQGDTRPYTFGGGTKVEIK
As for B17, in assay [4], the “FACS (MFI)” value amounted to 26400 MFI.

B18: 140Hm10/hz140L (Table 2) (antibody, V domains shown)
VH: QVQLVQSGAEVKKPGASVKVSCKASGYKFTNYVMSWVRQAPGQRLEWMGYINPYNDAIKYNEKFTGRVTITRDTSASTAYMELSSLRSEDTAVYYCAREGDFYANYGRLGFAYWGQGTLVTVSS
VL: DIQMTQSPSSLSASVGDRVTITCRASQDITNYLNWYQQKPGKAPKLLIYYTSRLHSGVPSRFSGSGSGTDYTFTISSLQPEDIATYFCQQGDTFPRTFGGGTKVEIK
notes: also called hz140-Hm/hz140L
Turning to B18, in assay [5], the Kd turned out to be 7.83 nM, the koff amounted to 0.00202 s⁻¹ and the kon turned out to be 258000 M⁻¹ s⁻¹.
